The experiment deals with Complement C3b, human, purified (human) (UniProt P01024). In words: SPR.

For the substance “Factor H CCP1-4, wild type (domain or fragment)”, the Kd amounted to 6.8 µM.

“Factor H CCP1-4 variant R166Q (domain or fragment)” returned a Kd of 64.4 µM.
